In patent US20240052047A1 (Pfizer, published 2024):

Molecular target: T1, cynomolgus IL27 receptor (IL27RA/gp130 heterodimer) on cynomolgus T cells (cynomolgus monkey)
T1 chain 1: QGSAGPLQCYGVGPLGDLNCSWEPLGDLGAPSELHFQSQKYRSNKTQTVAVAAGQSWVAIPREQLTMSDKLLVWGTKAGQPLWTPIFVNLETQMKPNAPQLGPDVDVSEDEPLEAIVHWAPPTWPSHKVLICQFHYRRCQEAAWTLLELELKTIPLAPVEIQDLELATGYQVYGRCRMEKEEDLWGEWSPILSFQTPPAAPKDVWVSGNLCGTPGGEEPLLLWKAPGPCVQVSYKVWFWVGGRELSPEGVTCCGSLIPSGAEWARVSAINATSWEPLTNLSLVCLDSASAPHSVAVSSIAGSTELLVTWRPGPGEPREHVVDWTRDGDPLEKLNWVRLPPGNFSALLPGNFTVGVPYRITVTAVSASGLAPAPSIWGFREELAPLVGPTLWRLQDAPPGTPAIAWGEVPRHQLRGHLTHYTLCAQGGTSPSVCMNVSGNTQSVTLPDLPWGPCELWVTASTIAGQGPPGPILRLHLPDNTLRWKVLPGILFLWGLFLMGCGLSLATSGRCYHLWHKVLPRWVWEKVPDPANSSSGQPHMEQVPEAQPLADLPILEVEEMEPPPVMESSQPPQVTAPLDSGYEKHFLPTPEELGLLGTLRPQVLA
T1 chain 2: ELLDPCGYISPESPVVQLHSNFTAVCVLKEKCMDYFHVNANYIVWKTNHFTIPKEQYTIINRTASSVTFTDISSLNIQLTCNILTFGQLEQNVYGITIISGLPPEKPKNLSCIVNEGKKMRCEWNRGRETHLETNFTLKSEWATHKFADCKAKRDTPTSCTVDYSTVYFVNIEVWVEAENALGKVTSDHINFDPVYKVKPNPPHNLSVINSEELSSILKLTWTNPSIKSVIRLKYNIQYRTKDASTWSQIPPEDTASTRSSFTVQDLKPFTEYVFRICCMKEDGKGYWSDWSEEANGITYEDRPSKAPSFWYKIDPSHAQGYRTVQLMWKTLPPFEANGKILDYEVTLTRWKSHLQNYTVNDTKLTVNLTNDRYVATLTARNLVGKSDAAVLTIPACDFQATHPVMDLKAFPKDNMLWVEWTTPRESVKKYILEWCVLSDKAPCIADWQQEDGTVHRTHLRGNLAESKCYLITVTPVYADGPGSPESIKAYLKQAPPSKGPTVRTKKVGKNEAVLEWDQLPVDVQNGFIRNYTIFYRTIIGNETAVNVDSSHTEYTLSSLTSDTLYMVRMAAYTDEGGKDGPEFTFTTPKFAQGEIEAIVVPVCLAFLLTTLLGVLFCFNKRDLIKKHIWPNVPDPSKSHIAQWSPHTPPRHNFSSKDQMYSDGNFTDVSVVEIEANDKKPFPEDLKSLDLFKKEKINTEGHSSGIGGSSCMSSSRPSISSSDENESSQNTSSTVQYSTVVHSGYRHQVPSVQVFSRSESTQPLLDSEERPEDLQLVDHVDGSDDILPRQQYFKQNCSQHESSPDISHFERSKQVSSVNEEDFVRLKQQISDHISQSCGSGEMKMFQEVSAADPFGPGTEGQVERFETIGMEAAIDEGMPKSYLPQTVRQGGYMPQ
Assay: cell-based or functional assay

T Cell pSTAT1 EC50 (cynomolgus whole blood, CD3+ T cells, flow cytometry): 1.74 nM
T Cell pSTAT3 EC50 (cynomolgus whole blood, CD3+ T cells, flow cytometry): 1.17 nM
B1: mAb-4894 anti-IL27RA/gp130 bispecific antibody (bispecific antibody, human IgG1)
heavy 1: EVQLVESGGGLVQPGGSLRLSCAASGFTFEYFGLQWVRQAPGKGLEWIGYTSSGGNYEYYEETLKGRFTISRDNAKNSLYLQMNSLRAEDTAVYYCARTKTGDYWGQGTLVTVSSASTKGPSVFPLAPSSKSTSGGTAALGCLVKDYFPEPVTVSWNSGALTSGVHTFPAVLQSSGLYSLSSVVTVPSSSLGTQTYICNVNHKPSNTKVDKKVEPKSCEKTHTCPPCPAPEAAGAPSVFLFPPKPKDTLMISRTPEVTCVVVDVSHEDPEVKFNWYVDGVEVHNAKTKPREEQYNSTYRVVSVLTVLHQDWLNGKEYKCKVSNKALPAPIEKTISKAKGQPREPQVYTLPPSREEMTKNQVSLTCEVKGFYPSDIAVEWESNGQPENNYKTTPPVLDSDGSFFLYSKLTVDKSRWQQGNVFSCSVMHEALHNHYTQKSLSLSPGK
light 1: DIQMTQSPSSLSASVGDRVTITCRASQDIGNSLTWYQQKPGKAPKRVIFGATGLAAGVPSRFSGSGSGTDFTLTISSLQPEDFATYYCLQSKQYPYTFGQGTKLEIKRTVAAPSVFIFPPSDEQLKSGTASVVCLLNNFYPREAKVQWKVDNALQSGNSQESVTEQDSKDSTYSLSSTLTLSKADYEKHKVYACEVTHQGLSSPVTKSFNRGEC
heavy 2: QVQLVQSGAEVKKPGSSVKVSCKVSGGSISSYYWSWVRQAPGQGLEWIGRIYITGNTNYNPSLKDRVTMTVDTSTSTHYMELSSLRSEDTAVYYCAREGPKLGIFDYWGQGTLVTVSSASTKGPSVFPLAPSSKSTSGGTAALGCLVKDYFPEPVTVSWNSGALTSGVHTFPAVLQSSGLYSLSSVVTVPSSSLGTQTYICNVNHKPSNTKVDKKVEPKSCRKTHTCPPCPAPEAAGAPSVFLFPPKPKDTLMISRTPEVTCVVVDVSHEDPEVKFNWYVDGVEVHNAKTKPREEQYNSTYRVVSVLTVLHQDWLNGKEYKCKVSNKALPAPIEKTISKAKGQPREPQVYTLPPSREEMTKNQVSLTCLVKGFYPSDIAVEWESNGQPENNYKTTPPVLDSDGSFFLYSRLTVDKSRWQQGNVFSCSVMHEALHNHYTQKSLSLSPGK
light 2: DIQMTQSPSSLSASVGDRVTITCRASQSVSSSYLAWYQQKPGKAPKLLIYGTESRATGVPSRFSGSGSGTDFTLTISSLQPEDFATYYCQQYGGYPTFGGGTKVEIKRTVAAPSVFIFPPSDEQLKSGTASVVCLLNNFYPREAKVQWKVDNALQSGNSQESVTEQDSKDSTYSLSSTLTLSKADYEKHKVYACEVTHQGLSSPVTKSFNRGEC
notes: Human IgG1 EE/RR heterodimer with L234A, L235A, G237A (EU); also called GBT-IL27R-4894; GBT-IL-27R-4894
